Paper PMC7614001 (2022)
Where “and” joins values, the source holds several entries; their conditions need not be identical. Equal entries are not always repeated.

What was measured:
ALK6 ECD = molecular target: T1, ALK6 ECD (Homo sapiens, UniProt O00238); experiment: BLI
T1 chain: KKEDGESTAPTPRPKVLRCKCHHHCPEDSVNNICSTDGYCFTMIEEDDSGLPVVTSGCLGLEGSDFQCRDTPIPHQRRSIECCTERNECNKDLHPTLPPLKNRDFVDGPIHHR

ALK1 ECD [1] = molecular target: T2, ALK1 ECD (Homo sapiens, UniProt P37023); experiment: BLI
ALK2/BMPR-II ECD = molecular target: T3, ALK2/BMPR-II ECD (Homo sapiens, UniProt Q04771); experiment: BLI
T3 chain 1: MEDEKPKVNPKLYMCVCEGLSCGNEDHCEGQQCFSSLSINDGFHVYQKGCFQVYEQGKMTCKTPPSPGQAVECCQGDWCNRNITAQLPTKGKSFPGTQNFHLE
T3 chain 2: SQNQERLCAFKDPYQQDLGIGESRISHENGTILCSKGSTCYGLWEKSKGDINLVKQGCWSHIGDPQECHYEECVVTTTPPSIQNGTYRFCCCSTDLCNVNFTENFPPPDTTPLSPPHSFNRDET

ALK2 ECD = molecular target: T4, ALK2 ECD (Homo sapiens, UniProt Q04771); experiment: BLI
T4 chain: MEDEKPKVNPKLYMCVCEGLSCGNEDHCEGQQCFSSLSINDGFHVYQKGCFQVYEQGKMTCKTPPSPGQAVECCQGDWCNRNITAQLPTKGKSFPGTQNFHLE

ALK5 ECD = molecular target: T5, ALK5 ECD (Homo sapiens, UniProt P36897); experiment: BLI
T5 chain: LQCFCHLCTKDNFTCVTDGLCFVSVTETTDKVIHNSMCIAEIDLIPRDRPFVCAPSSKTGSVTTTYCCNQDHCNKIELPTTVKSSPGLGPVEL

BMPR-II ECD = molecular target: T6, BMPR-II ECD (Homo sapiens, UniProt Q13873); experiment: BLI
T6 chain: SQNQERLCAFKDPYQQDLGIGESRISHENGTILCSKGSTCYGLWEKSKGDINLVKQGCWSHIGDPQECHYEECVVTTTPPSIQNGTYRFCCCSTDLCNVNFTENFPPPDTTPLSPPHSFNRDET

ACTR-IIA ECD = ACTR-IIA ECD (Homo sapiens, UniProt P27037); experiment: BLI
ACTR-IIA ECD, sequence (P27037 20-135): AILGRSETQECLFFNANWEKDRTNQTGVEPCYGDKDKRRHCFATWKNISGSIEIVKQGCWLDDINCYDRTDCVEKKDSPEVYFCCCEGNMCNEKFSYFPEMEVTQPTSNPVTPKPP

ALK2/ACTR-IIB ECD = molecular target: T7, ALK2/ACTR-IIB ECD (Homo sapiens, UniProt Q04771); experiment: BLI
T7 chain 1: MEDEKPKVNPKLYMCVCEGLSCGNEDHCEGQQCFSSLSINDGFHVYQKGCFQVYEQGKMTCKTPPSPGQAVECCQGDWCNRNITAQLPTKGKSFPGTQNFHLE
T7 chain 2: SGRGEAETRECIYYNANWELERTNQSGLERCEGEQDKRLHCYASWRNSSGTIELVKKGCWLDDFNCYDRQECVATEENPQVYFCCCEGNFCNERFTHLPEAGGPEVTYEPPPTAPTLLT

ACTR-IIB ECD = molecular target: T8, ACTR-IIB ECD (Homo sapiens, UniProt Q13705); experiment: BLI
T8 chain: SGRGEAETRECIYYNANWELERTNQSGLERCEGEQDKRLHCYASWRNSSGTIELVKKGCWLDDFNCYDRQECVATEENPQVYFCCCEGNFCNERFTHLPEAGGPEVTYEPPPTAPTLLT

ALK1 ECD [2] = molecular target: T2, ALK1 ECD; experiment: SPR
ALK3 ECD = molecular target: T9, ALK3 ECD (Homo sapiens, UniProt P36894); experiment: BLI
T9 chain: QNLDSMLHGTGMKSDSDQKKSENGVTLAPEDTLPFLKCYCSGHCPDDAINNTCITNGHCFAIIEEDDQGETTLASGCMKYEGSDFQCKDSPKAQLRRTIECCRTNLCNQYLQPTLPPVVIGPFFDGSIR

T2 sequence (P37023 22-118): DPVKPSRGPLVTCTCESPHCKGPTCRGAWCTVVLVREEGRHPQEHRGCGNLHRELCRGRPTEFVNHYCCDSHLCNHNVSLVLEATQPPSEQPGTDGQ

Binder | Kd (ALK6 ECD) | Kd (ALK1 ECD [1]) | Kd (ALK2/BMPR-II ECD) | Kd (ALK2 ECD) | Kd (ALK5 ECD) | Kd (BMPR-II ECD) | Kd (ACTR-IIA ECD) | Kd (ALK2/ACTR-IIB ECD) | Kd (ACTR-IIB ECD) | Kd (ALK1 ECD [2]) | Kd (ALK3 ECD)
BMP-4 (protein) SPKHHSQRARKKNKNCRRHSLYVDFSDVGWNDWIVAPPGYQAFYCHGDCPFPLADHLNSTNHAIVQTLVNSVNSSIPKACCVPTELSAISMLYLDEYDKVVLKNYQEMVVEGCGCR | 3.1 nM | 55.4 nM | 55.8 nM and 90.7 nM | 10.5 nM | 21.9 nM | 56 nM | 21.4 nM | 103 nM and 88.7 nM | 26 nM |  | 
BMP-7 (protein) STGSKQRSQNRSKTPKNQEALRMANVAENSSSDQRQACKKHELYVSFRDLGWQDWIIAPEGYAAYYCEGECAFPLNSYMNATNHAIVQTLVHFINPETVPKPCCAPTQLNAISVLYFDDSSNVILKKYRNMVVRACGCH | 15 nM | 23.1 nM |  |  | 22.6 nM | 5.5 nM | 1.3 nM |  | 7.1 nM |  | 
BMP-9 (protein) SAGAGSHCQKTSLRVNFEDIGWDSWIIAPKEYEAYECKGGCFFPLADDVTPTKHAIVQTLVHLKFPTKVGKACCVPTKLSPISVLYKDDMGVPTLKYHYEGMSVAECGCR |  | 0.2 nM |  |  | 51 nM | 0.8 nM | 1.7 nM |  | 1.4 nM | 0.0134 nM | 
BMP-2 (protein) QAKHKQRKRLKSSCKRHPLYVDFSDVGWNDWIVAPPGYHAFYCHGECPFPLADHLNSTNHAIVQTLVNSVNSKIPKACCVPTELSAISMLYLDENEKVVLKNYQDMVVEGCGCR | 0.5 nM | 13 nM |  |  | 5.8 nM | 5.4 nM |  |  |  |  | 0.21 nM
